For 1 substance, Kd and stoichiometry N results are on record in publication PMC11064669.

In general, Kd refers to the equilibrium constant for the complex coming apart. The stoichiometry N is a count of units in the complex or per binding partner.

Test [1] addresses LC3B residues 1-120 F52A/L53A (UniProt Q9GZQ8). The test is described as follows: ITC.
The next test has as its target LC3B residues 1-120 WT (UniProt Q9GZQ8). In words: ITC.

For “tepsin LIR motif peptide (residues 185-193)”, the Kd in test [1] was more than 300 µM. Further, in the test with LC3B residues 1-120 WT, the Kd worked out at 44.4 µM and the stoichiometry N stood at 0.523.
